Assay results reported in publication PMC3306812 (Molecular Cell, 2012).

Target: full-length OTUB1 (human, UniProt Q96FW1 1-271)
Assay: NMR titration

Chain of full-length OTUB1 (Q96FW1 whole entry): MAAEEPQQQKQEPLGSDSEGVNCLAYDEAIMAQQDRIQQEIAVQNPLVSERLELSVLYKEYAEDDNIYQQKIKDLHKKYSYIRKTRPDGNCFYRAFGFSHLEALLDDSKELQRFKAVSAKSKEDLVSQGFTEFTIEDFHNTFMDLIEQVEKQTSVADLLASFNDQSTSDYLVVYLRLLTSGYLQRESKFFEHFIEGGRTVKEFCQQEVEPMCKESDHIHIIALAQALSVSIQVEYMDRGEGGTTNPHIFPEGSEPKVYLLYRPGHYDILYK

binding result: binds
B1: UBC13 (enzyme, UniProt P61088 1-152, looked up)
chain: MAGLPRRIIKETQRLLAEPVPGIKAEPDESNARYFHVVIAGPQDSPFEGGTFKLELFLPEEYPMAAPKVRFMTKIYHPNVDKLGRICLDILKDKWSPALQIRTVLLSIQALLSAPNPDDPLANDVAEQWKTNEAQAIETARAWTRLYAMNNI
